Data published in patent publication US5747447A, “Stable polypeptide composition” (COR Therapeutics, priority 1995, dated 1998).

What was measured:
[1] = target: ADP-induced human platelet aggregation (Homo sapiens, UniProt P05106+P08514); assay: standard aggregation inhibition assay (ADP-induced human platelet aggregation); type: cell-based
Text: 2. Standard assays directly applied to platelet aggregation, such as those described by Gann, Z.-R., et al., J Biol Chem (1988) 263:19827-19832; Huang, T. F., et al., J Biol Chem (1987) 262:16157-16163; Biochemistry (1989) 28:661-666, cited above and incorporated herein by reference;

[2] = test system: M21 melanoma cells; assay: M21 melanoma cell adhesion to vitronectin-coated plates; type: cell-based
Experimental: M21 melanoma cells were labelled with ^35 S-methionine, and then added to vitronectin-coated plates in the presence of the indicated concentrations of purified snake venom peptides. Cell attachment was measured by solubilizing the cells remaining after an incubation and wash, as previously describe.

[3] = target: vitronectin receptor (Homo sapiens, UniProt P05106+P06756); assay: plate assay, inhibition of vitronectin binding to vitronectin receptor
Chain of vitronectin receptor (P06756 31-889 limits assumed): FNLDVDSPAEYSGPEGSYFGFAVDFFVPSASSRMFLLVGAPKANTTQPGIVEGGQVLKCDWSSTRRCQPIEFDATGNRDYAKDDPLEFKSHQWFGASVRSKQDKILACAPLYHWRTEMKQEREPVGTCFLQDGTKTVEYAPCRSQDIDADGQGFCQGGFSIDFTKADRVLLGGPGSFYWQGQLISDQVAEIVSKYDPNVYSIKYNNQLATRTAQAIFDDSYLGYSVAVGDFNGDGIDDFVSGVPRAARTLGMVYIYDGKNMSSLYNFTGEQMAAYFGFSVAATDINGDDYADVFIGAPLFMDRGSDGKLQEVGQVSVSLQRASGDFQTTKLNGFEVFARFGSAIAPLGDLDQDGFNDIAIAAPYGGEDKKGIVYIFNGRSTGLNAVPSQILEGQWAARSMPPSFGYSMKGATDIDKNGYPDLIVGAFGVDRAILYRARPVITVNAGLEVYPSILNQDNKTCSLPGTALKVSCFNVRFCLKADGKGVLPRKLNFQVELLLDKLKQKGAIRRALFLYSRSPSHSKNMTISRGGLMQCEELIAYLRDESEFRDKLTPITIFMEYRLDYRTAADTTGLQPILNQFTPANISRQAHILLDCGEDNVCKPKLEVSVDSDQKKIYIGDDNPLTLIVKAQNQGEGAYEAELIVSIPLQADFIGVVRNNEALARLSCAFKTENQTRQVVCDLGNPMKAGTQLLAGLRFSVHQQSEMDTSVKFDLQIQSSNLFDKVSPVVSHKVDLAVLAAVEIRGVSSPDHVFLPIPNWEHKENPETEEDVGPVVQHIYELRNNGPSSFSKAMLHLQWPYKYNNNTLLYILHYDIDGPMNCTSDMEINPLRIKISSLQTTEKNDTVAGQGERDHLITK
Chain of vitronectin receptor (P06756 891-1048 limits assumed): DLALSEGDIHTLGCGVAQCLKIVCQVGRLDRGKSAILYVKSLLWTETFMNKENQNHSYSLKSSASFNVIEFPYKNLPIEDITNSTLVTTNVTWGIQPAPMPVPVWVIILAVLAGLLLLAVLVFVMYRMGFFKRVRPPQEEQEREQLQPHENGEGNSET
Chain of vitronectin receptor (P05106 27-788): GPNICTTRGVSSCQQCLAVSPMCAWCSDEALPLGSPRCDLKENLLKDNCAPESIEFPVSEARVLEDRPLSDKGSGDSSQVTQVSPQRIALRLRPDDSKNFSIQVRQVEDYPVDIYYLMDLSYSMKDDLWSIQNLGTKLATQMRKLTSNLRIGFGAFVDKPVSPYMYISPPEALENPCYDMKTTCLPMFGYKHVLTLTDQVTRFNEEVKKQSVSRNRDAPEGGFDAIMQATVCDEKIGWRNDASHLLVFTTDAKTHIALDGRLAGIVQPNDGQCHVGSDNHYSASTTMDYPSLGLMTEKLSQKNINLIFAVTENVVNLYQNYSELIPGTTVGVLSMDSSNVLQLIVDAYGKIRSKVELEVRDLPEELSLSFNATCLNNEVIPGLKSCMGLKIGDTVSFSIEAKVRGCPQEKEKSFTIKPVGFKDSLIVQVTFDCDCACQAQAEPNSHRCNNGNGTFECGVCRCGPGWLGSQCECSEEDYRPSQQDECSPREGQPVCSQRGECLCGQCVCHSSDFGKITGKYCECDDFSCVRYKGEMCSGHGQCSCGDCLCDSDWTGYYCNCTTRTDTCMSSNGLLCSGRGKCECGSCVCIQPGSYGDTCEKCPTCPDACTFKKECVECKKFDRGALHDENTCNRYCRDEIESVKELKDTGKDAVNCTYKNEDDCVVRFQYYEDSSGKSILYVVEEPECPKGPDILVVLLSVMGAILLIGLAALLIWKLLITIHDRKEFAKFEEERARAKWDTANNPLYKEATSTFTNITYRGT
Text: The PAI assay systems further include characterization of the PAI specificity by binding inhibition assays identical to that above but substituting other adhesive proteins for Fg and other receptors for GP IIb-IIIa. In particular, inhibition of the binding of vitronectin to the vitronectin receptor; fibronectin to the fibronectin receptor; fibronectin to GP IIb-IIIa and fibrinogen and/or vWF to GP IIb-IIIa can be assessed. The adhesive protein and receptors for these assays are available in the art.

Molecule	platelet aggregation inhibition activity (in words) [1]	M21 cell attachment to vitronectin (in words) [2]	inhibition of vitronectin binding to the vitronectin receptor (in words) [3]
barbourin (protein) peptide: EAGEECDCGSPENPCCDAATCKLRPGAQCADGLCCDQCRFMKKGTVCRVAKGDWNDDTCTGQSADCPRNGLYG	potent inhibitors of platelet aggregation	Neither barbourin nor Peptide 1 (truncated barbourin) had a significant effect	–
cotiarin (protein) peptide: EAGEECDCGAPENPCCDAATCKLRPGAQCAEGLCCDQCRFKGAGKICRRARGDNPDDRCTGQSADCPRNRFH	–	very potent in inhibiting cell attachment to vitronectin	potent inhibitor
